Experimental data from patent US20180023146A1 (CLEVELAND CLINIC FOUNDATION, published 2018).

Target: T1, 3βHSD1 (367N)-HA (human, UniProt P14060 2-373)
T1 construct: Expressed from pCMX-HSD3B1-HA in 293T cells and immunoprecipitated with anti-HA antibody; also called HSD3B1(N)-HA; not shown: HA tag fused to HSD3B1
T1 sequence (looked up): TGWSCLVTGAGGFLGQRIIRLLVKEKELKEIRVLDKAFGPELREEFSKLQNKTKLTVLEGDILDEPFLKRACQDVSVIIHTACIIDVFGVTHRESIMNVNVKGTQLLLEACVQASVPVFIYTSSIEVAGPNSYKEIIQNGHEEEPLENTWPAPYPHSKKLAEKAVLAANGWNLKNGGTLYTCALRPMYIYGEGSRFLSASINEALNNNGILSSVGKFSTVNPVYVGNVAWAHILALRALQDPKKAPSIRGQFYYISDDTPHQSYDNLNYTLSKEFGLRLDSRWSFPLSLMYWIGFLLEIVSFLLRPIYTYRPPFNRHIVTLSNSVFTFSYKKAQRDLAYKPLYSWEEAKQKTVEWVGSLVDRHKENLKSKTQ
Assay: SILAC with high-resolution mass spectrometry; 367N-HA (heavy) and 367T-HA (light) immunoprecipitations mixed 1:1

B1: AMFR (autocrine mobility factor receptor) (enzyme, UniProt Q9UKV5 1-643, looked up)
chain: MPLLFLERFPWPSLRTYTGLSGLALLGTIISAYRALSQPEAGPGEPDQLTASLQPEPPAPARPSAGGPRARDVAQYLLSDSLFVWVLVNTACCVLMLVAKLIQCIVFGPLRVSERQHLKDKFWNFIFYKFIFIFGVLNVQTVEEVVMWCLWFAGLVFLHLMVQLCKDRFEYLSFSPTTPMSSHGRVLSLLVAMLLSCCGLAAVCSITGYTHGMHTLAFMAAESLLVTVRTAHVILRYVIHLWDLNHEGTWEGKGTYVYYTDFVMELTLLSLDLMHHIHMLLFGNIWLSMASLVIFMQLRYLFHEVQRRIRRHKNYLRVVGNMEARFAVATPEELAVNNDDCAICWDSMQAARKLPCGHLFHNSCLRSWLEQDTSCPTCRMSLNIADNNRVREEHQGENLDENLVPVAAAEGRPRLNQHNHFFHFDGSRIASWLPSFSVEVMHTTNILGITQASNSQLNAMAHQIQEMFPQVPYHLVLQDLQLTRSVEITTDNILEGRIQVPFPTQRSDSIRPALNSPVERPSSDQEEGETSAQTERVPLDLSPRLEETLDFGEVEVEPSEVEDFEARGSRFSKSADERQRMLVQRKDELLQQARKRFLNKSSEDDAASESFLPSEGASSDPVTLRRRMLAAAAERRLQKQQTS
notes: It appears to be the protein of the human 293T cells, co-immunoprecipitated with HA-tagged 3βHSD1; also called gp78; ubiquitin E3-ligase AMFR
B1 was tested, and the “normalized protein ratio (SILAC; 3βHSD1 (367N)-HA against 3βHSD1 (367T)-HA immunoprecipitates)” value was 1.67.
